The results in this text go back to US20190352660A1 (PLANT BIOSCIENCE, published 2019).

Positions count from the first letter of the chain named.

The test has as its target T1, GST-GUS (UniProt P05804 1-603, limits assumed).
T1 construct: Negative control bait; also called GST-tagged beta-glucuronidase; negative control GST-GUS; not shown: GST tag
Briefly: in vitro GST pull-down on glutathione sepharose beads, immunoblot for GST and FLAG. The protocol:
E. coli expressed GST-tagged bait proteins were incubated with E. coli expressed FLAG-tagged prey proteins before purification on glutathione sepharose beads and immunoblotting for GST and FLAG.
Following this growth phase, the cultures were centrifuged at 4500×g for 10 minutes, the supernatants were discarded and the pellets resuspended at 4° C. in 2.5 ml TGH Buffer (50 mM HEPES (pH7.5), 150 mM NaCl, 1% Triton-X-100, 10% Glycerol, 1 mM DTT, 1 complete EDTA-free protease inhibitor tablet (per 50 ml) (Roche 11873580001)). The bacterial suspension was then sonicated (on ice) for four bursts of ten seconds, separated by 20-second intervals, before being centrifuged at 12 000×g for 20 minutes to pellet any cellular debris. Cleared sonicates were then stored on ice while a 50% slurry of washed glutathione sepharose beads (GE Life Sciences 17-0756-01) was prepared according to the manufacturer's instructions. 20 μl of the 50% glutathione sepharose slurry was then combined with 2.5 ml of protein extract from bait protein (GST-tagged) expressing cells and 2.5 ml of protein extract from prey protein (HA-/FLAG-/HIS-tagged) expressing cells. […] After washing, proteins were eluted with 35 μl GST-elution buffer (50 mM TRIS-glycine (pH8.0), 10 mM reduced glutathione) over 30 minutes at 4° C. before being analysed by western blot analysis. […]

T1 sequence (P05804 whole entry): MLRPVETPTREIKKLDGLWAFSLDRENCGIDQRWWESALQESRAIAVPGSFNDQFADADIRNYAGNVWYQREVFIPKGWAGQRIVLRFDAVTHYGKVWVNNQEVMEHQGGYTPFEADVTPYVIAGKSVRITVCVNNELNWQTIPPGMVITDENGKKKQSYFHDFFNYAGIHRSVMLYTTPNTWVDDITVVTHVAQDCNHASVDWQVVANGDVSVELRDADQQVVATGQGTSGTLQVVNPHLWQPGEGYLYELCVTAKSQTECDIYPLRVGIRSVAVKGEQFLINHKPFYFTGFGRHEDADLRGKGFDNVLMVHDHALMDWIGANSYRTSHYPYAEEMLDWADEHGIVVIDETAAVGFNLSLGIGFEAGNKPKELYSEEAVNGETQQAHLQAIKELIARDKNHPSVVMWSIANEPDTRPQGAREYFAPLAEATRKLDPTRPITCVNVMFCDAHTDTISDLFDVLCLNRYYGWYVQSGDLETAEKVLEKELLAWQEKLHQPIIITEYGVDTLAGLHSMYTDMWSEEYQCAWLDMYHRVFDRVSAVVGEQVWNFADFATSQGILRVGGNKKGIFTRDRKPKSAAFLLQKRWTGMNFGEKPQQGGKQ

B1: FLAG-DA1 (other)
chain: MGWFNKIFKGSNQRLRVGNNKHNHNVYYDNYPTASHDDEPSAADTDADNDEPHHTQEPSTSEDNTSNDQENEDIDRAIALSLLEENQEQTSISGKYSMPVDEDEQLARALQESMVVGNSPRHKSGSTYDNGNAYGAGDLYGNGHMYGGGNVYANGDIYYPRPITFQMDFRICAGCNMEIGHGRFLNCLNSLWHPECFRCYGCSQPISEYEFSTSGNYPFHKACYRERYHPKCDVCSHFIPTNHAGLIEYRAHPFWVQKYCPSHEHDATPRCCSCERMEPRNTRYVELNDGRKLCLECLDSAVMDTMQCQPLYLQIQNFYEGLNMKVEQEVPLLLVERQALNEAREGEKNGHYHMPETRGLCLSEEQTVSTVRKRSKHGTGKWAGNITEPYKLTRQCEVTAILILFGLPRLLTGSILAHEMMHAWMRLKGFRTLSQDVEEGICQVMAHKWLDAELAAGSTNSNAASSSSSSQGLKKGPRSQYERKLGEFFKHQIESDASPVYGDGFRAGRLAVHKYGLRKTLEHIQMTGRFPV
notes: E. coli expressed prey protein; also called FLAG-tagged wild-type DA1; AtDA1; not shown: FLAG tag
On to B1, for which the binding result was “no binding”.

B2: FLAG-da1lim8 (other)
chain: B1 chain with C172G, C175G, C199G, C202G
notes: E. coli expressed prey protein; It is a DA1 variant with a mutated LIM domain; also called FLAG-tagged DA1lim8; not shown: FLAG tag
In the case of B2, the binding result is “no binding”.
